Data set [1] has as its target T1, Saccharomyces cerevisiae Pol32, PCNA-binding subunit of DNA polymerase delta (ScPol32) (Saccharomyces cerevisiae, UniProt P47110 1-350).
T1 sequence: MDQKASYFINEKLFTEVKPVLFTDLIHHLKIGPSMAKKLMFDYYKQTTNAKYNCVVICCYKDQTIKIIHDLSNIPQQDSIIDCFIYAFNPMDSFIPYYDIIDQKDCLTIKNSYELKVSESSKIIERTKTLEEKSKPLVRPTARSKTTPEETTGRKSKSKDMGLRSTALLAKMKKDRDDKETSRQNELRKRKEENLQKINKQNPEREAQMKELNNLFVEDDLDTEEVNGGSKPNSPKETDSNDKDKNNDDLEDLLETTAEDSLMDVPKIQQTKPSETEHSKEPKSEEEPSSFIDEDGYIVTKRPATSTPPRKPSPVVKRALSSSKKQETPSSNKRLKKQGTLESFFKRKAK
Kind of data set: ITC. (ITC needs no label: the signal is the heat of the interaction.)

The data set “native gel or EMSA” concerns the molecule itself. The experiment in a line: native gel or EMSA. In general terms: In EMSA bound probe runs differently from free probe, usually more slowly.
Data set [2] addresses T2, Saccharomyces cerevisiae Pol32, PCNA-binding subunit of DNA polymerase delta (ScPol32) (Saccharomyces cerevisiae), P47110.
T2 chain: T1 sequence
Kind of data set: ITC. The note with it: remark: other sources report otherwise.

B1: Neurospora crassa proliferating cell nuclear antigen (NcPCNA), GST tag cleaved (natural protein)
chain: MLEARLEQASILKKVVDAIKDLVQDCNFDCNDSGIALQAMDNSHVALVSMMLKTETFSPFRCDRNIALGVNLTSLTKVLRAAQNEDILTLKAEDAPDVLNLVFESSENDRISEYDLKLMDIDQEHLGIPDTEYAATISMPSSEFKRITTDLMAMSESVNIEASKDGVKFSCQGDIGNGSITLRQHTNVDKPSENIEIELSEPVSLTFSLKYLVNFCKASALSSTVKICLSNEVPLLVEYNISASSYLRFYLAPKIGDEE
The term Kd denotes the equilibrium constant for the complex coming apart. The low end stands for tighter binding, the high end for weaker binding. The term stoichiometry N denotes a count of units in the complex or per binding partner. As for B1, in data set [1], binding was characterised by a dissociation constant (Kd) of 4.28 ± 0.325 µM, the dH was -1.24 ± 0.0554 kcal/mol and the “stoichiometry N” value was found to be 1.06 ± 0.035. The “stoichiometry N” value in “native gel or EMSA” was 3.

B2: Saccharomyces cerevisiae PCNA (ScPCNA), wild type, P15873 1-258 (natural protein)
chain: MLEAKFEEASLFKRIIDGFKDCVQLVNFQCKEDGIIAQAVDDSRVLLVSLEIGVEAFQEYRCDHPVTLGMDLTSLSKILRCGNNTDTLTLIADNTPDSIILLFEDTKKDRIAEYSLKLMDIDADFLKIEELQYDSTLSLPSSEFSKIVRDLSQLSDSINIMITKETIKFVADGDIGSGSVIIKPFVDMEHPETSIKLEMDQPVDLTFGAKYLLDIIKGSSLSDRVGIRLSSEAPALFQFDLKSGFLQFFLAPKFNDEE
Take B2: in data set [2], the Kd worked out at 2.75 µM, the dH was -1.48 kcal/mol and the stoichiometry N worked out at 1.05.

Source of the values: publication PMC8319368 (The Journal of Biological Chemistry, 2021).
